The source of these data is the nanobody polyreactivity screen of Harvey et al. (2022).

The data set is described as follows: yeast display, Sf9 membrane polyspecificity reagent, FACS + sequencing; frameworks hold sequencing errors. The essentials: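 Nanobodies came from a synthetic yeast display library in Saccharomyces cerevisiae BJ5465, induced with galactose for 36–48 hours and stained for 1 hour at 4 °C with 10% biotinylated, detergent-solubilized Sf9 membrane reagent. Cells were enriched on streptavidin microbeads and then FACS-sorted, with low and high (top ~1%) gates set on anti-HA fluorescence for expression and streptavidin fluorescence for reagent binding. Each polyreactivity label reflects the gate a clone came from. Genes were amplified by colony PCR, sequenced by MiSeq 2 × 250 and filtered by CDR length.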
On to “QVQLVESGGGLVQAGGSLRLICAASGSIFVYNAMGSYRQAPAKERELVAAISQRGGSTYYADSVKGRFTISRDNAKNTVYLQMKSLKPEDTAVYYCAAGPGDSGDDYWGQGTQVTVSS”, for which the “polyreactivity (PSR sort gate)” value is “low polyreactivity”.

As for “QVQLVESGGGLVQAGGSLRLICAASGSIFYANAMGWYRQAPGKEREFVAANSSSGGGTSYADSVKGRFTISRDNAKNTVYLQMNSLKPEDTAVYYCAARVTYGGIPARQIYDYWGQGTQVTVSS”, the “polyreactivity (PSR sort gate)” value was “low polyreactivity”.

Regarding “QVQLVESGGGLVQAGGSLRLICAASGSIFYVNAMGWYRQEPGKERELVAGISRSGSSTYYADSVKGRFTISRDNAKNTVYLLMNSLKPEDTAVYYCNRVYQGRGWHDYWGQGTQVTVSS”, the “polyreactivity (PSR sort gate)” value is on record as “high polyreactivity”.

For the sequence “QVQLVESGGGLVQAGGSLRLICAASGSILYYYVMGWYRQAPGKERQLVAAITSGGSTYYADSVKGRFTISRDNAKNNVYLQMNSLKPEDTAVYYCAVRPRRQYSPSRWGTGCYWGQGTQVTVSS”, the “polyreactivity (PSR sort gate)” value is reported as “high polyreactivity”.

“QVQLVESGGGLVQAGGSLRLICAASGSTFDSYAMGWYRQAPGKERELVAAISRSGGRTYYADSVKGRFTISRDNAKNTVYLQMNSLKPEDTAGYYCAAPVKVGHSLSGGDYWGQGTQVTVSS”: the “polyreactivity (PSR sort gate)” value was “high polyreactivity”.

Take “QVQLVESGGGLVQAGGSLRLICAASGSTFEHYAMGWYRPAPGKERELVAAITRRGGSTYYADSVKGRFTISRDNAKNTVYLQMNSLKPEDTAVYDCNTDLRYSYYLPGYDYWGQGPQVTVSS”: the “polyreactivity (PSR sort gate)” value is listed as “high polyreactivity”.

As for “QVQLVESGGGLVQAGGSLRLICAASGSTFEQYAMGWYRQAPGKERELVAAINRGGSTYYADSVKGRFTISRDNAKNTVYLQMNSLKPEDTAVYYCAVYAFVRYRSRYGYWGQGTQVTVSS”, the “polyreactivity (PSR sort gate)” value is reported as “high polyreactivity”.

For the sequence “QVQLVESGGGLVQAGGSLRLICAASGSTFGPYAMGWYRQAPGKERELVADITVSDGSTYYADSVKGRFTISRDNAKNTVYLQMNSLNPEDTAVYYCAAEIYYSFGYWGQGTQVTVSS”, the “polyreactivity (PSR sort gate)” value is listed as “low polyreactivity”.

Regarding “QVQLVESGGGLVQAGGSLRLICAASGSTFGPYSMGWYRQAPGKEMELVAVITTSGSTNYADSVKGRFTISRDNAKNTVYLQMNSLKPEDTAVYYCAARYRYYGTNRYYYWGQGTQVTVSS”, the “polyreactivity (PSR sort gate)” value is listed as “high polyreactivity”.

In the case of “QVQLVESGGGLVQAGGSLRLICAASGSTFGVYAMGWYRQAPGKEREMVAAIRWSSGSTYYADSVKGRFTISRDNAKNTVYLQMNSLKPEDTAVYYCAKTRGIYNIRFGYWGQGTQVTVSS”, the “polyreactivity (PSR sort gate)” value is “high polyreactivity”.

On to “QVQLVESGGGLVQAGGSLRLICAASGSTFIINAMGWYRQAPGKERELVARITQRGTSTFYADSVKGRFTISRDNAKNTVYLQMNSLKPDDTAVYYCAGRGSNSLGNKYDYWGQGTQVTVSS”, for which the “polyreactivity (PSR sort gate)” value was “high polyreactivity”.

Regarding “QVQLVESGGGLVQAGGSLRLICAASGSTFIINAMGWYRQAPGKERELVARITQRGTSTFYADSVKGRFTISRDNAKNTVYLQMNSLKPEDTAVYYCAARGSKSLGNKYDYWGQGTQVTVSS”, the “polyreactivity (PSR sort gate)” value was “high polyreactivity”.

Turning to “QVQLVESGGGLVQAGGSLRLICAASGSTFNNNAMGWFRQAPGKERELVAAISYTGGSTYYADSVKGRFTISRDNAKNNVYLQMNSLKPEDTAVYYCAADYPHLGGYRYDYWGQGTQVTVSS”, the “polyreactivity (PSR sort gate)” value is given as “high polyreactivity”.

For “QVQLVESGGGLVQAGGSLRLICAASGSTFPTYAMGWYRQAPGKERELVAAIDSSGGNTYYADSVKGRFTISRDNAKNTVYLQMNSLKPEDTEVYYCARESVTYFWYYTPEVDYWGQGTQVTVSS”, the “polyreactivity (PSR sort gate)” value was “low polyreactivity”.

In the case of “QVQLVESGGGLVQAGGSLRLICAASGSTFQLYAMGWYRQAPGKERDLFAAISGIGDSTYYADSVKGRFTISRDNAKITVYLQMNSLKPEDTAVYYCAREFSDGLSGKFDYWGQRTQVTVSS”, the “polyreactivity (PSR sort gate)” value is on record as “low polyreactivity”.

Regarding “QVQLVESGGGLVQAGGSLRLICAASGSTFRNYAMGWYRQAPGKDRELVAAISRGDGTYYADSVKWRFTISRDNAKNTVYLLMNSLKPEYSAVYYCAAAYRGRQNPMGFWGQGTQVTVSS”, the “polyreactivity (PSR sort gate)” value is “high polyreactivity”.

On to “QVQLVESGGGLVQAGGSLRLICAASGSTFRYYAMGWYRQAPGKEREFVAAITKGGSRTSYADSVKGRFTISRDNAKNTVYLQMNSLKPEDTAVYYCATAYYGGASQRNYGYWGQGTQVTVSS”, for which the “polyreactivity (PSR sort gate)” value is listed as “high polyreactivity”.

Consider “QVQLVESGGGLVQAGGSLRLICAASGSTFVSNAMGWYRQAPGKERELVAAITVSGGRTYYADSVKGRFTISRDNAKNTVYLQMNSLKPEDTAVYYCAAQIYGKYDYWGQGTQVTVSS”, for which the “polyreactivity (PSR sort gate)” value is “low polyreactivity”.

With “QVQLVESGGGLVQAGGSLRLICAASGSTFWGYTMGWYRQAPGKERELVAAITRSSGRTYYADSVKGRFTISRDNAMNTVYLQFHSLKPEDTAVYYWNADAVGRRTWSPYDYWGQGSQVTVSS”, the “polyreactivity (PSR sort gate)” value is given as “high polyreactivity”.

As for “QVQLVESGGGLVQAGGSLRLICAASGSTFYKYNMGWYRQAPGKERELVAAISGSGTTTYYADTVKGRFTISRDNAKNTVYLQMNSLKPEDTAVYYCAARRFSPGSSGHGYWGQGTQVTVSS”, the “polyreactivity (PSR sort gate)” value was “high polyreactivity”.

Turning to “QVQLVESGGGLVQAGGSLRLICAASGSTFYPNAMGWYRPAPGKERELVAAITSAGSTYYADSVKGRFTISRDNAKNTVYLQMNSLKPEDTAVYYCAKRRASRYDWGQGTQVTVSS”, the “polyreactivity (PSR sort gate)” value is reported as “high polyreactivity”.

In the case of “QVQLVESGGGLVQAGGSLRLICAASGSTFYRYAMGWYRQAPGKERELVAAISSSGGSTYYADSVKGRFTISRDIAKNTVYLQMNSLKPEDTAVYYCNRYGSGHSFIYDYWGQGTQVTLSS”, the “polyreactivity (PSR sort gate)” value was “high polyreactivity”.

With “QVQLVESGGGLVQAGGSLRLICAASGSTFYYNAMGWYRQAPGKERELVAGITYRGGSTYYADSVKGRFTISRDNAKNTVYLQMNSLKPEDTAVYYCAARHYIWSQYYTRYDYWGQGTQVTVSS”, the “polyreactivity (PSR sort gate)” value is recorded as “high polyreactivity”.

“QVQLVESGGGLVQAGGSLRLICAASGSTIFENVMGWYRQAPGKEREFVAAINTSGGSTYYADSVKGRFTISRDNAKNTVYLQMNILKPEDTAVYYCARDSYWEMDYWGQGTQVTVSS”: the “polyreactivity (PSR sort gate)” value is on record as “low polyreactivity”.

Consider “QVQLVESGGGLVQAGGSLRLICAASGSTIVWNAMGWYRQAPGKERELVATITLSTGSTYYADSVKGRFTISRDNAKNTVYLQMNSLKPEDTAVYYCNTEIYVDIISVYGYWGQGTQVTVSS”, for which the “polyreactivity (PSR sort gate)” value is “low polyreactivity”.

For “QVQLVESGGGLVQAGGSLRLICAASGSTLIWNAMGWYRQAPGKEMELVAVISFSGVSTYYADSVKGRFTISRDNAKNTVYLQMNSLKPEDTAVYYCAAGRYLYNYYGYVDKYGYWGQGTQVTVSS”, the “polyreactivity (PSR sort gate)” value is “low polyreactivity”.

For the sequence “QVQLVESGGGLVQAGGSLRLICAASGSTLVANAMGGYRQAPGKERELVAAISSGGITYYADSVKGRFTISRDNAKNTVYLQMNSLKPEDTAVYYCAKRGQGFQFGRDYWGQGTQVTVSS”, the “polyreactivity (PSR sort gate)” value was “low polyreactivity”.

“QVQLVESGGGLVQAGGSLRLICAASGSTNYRYAMGWYRQAPGKERELVATISSTGARTNYADSVKGRFTISRDNAKNTDYLQMNSLKPEDTAVYYCAASAPYIYYWGQGTQVTVSS”: the “polyreactivity (PSR sort gate)” value is listed as “high polyreactivity”.

On to “QVQLVESGGGLVQAGGSLRLICAASGSTSQNKAMGWYRPAPGKERELVAAITWSGDSTYYADSVKGRFTISRDNAKNTVYIQMNSLKPEDSAVYYCAAVSRFFSTYLYDYWGEGTQVTVSS”, for which the “polyreactivity (PSR sort gate)” value is recorded as “low polyreactivity”.

On to “QVQLVESGGGLVQAGGSLRLICAASGTISSLNTMGWYRQAPVKERELVASITWSGGSTYADSVKGRFTISRDNAKNTVYLQMNSLKPEDTAVYYCAKGVWFSRRRYGYWGQGTQVTVSS”, for which the “polyreactivity (PSR sort gate)” value is listed as “high polyreactivity”.

On to “QVQLVESGGGLVQAGGSLRLICAASGVTFWSDAMGWYRQAPGKEREFVAAITTSAGRTNYADSVKGRFTISRDNAQNTVYLKMNSLKPEDTAVYYCAARSAYTGLGSGFDYWGQGTQVSVSS”, for which the “polyreactivity (PSR sort gate)” value is “low polyreactivity”.

Take “QVQLVESGGGLVQAGGSLRLICAASGYTFSYYAMGWYRQAPGKERELVAAINYSGGRTYYADSVKGRFTISRDNAKNTVYLQMNSLKPDDTAVYYCAAYTRNGDYDYWGQGTQVTVSS”: the “polyreactivity (PSR sort gate)” value is on record as “high polyreactivity”.

As to “QVQLVESGGGLVQAGGSLRLICADSGSTFTGNAMGWYRQAPGKERELVAAISRSGGRTYYADSVKGRFTISRDNAKNTVYLQMNSLKPEDTAVYYCNAVRNRGQRTAFDYWGQGTQVTVSS”, the “polyreactivity (PSR sort gate)” value is reported as “high polyreactivity”.

With “QVQLVESGGGLVQAGGSLRLICASSGLNFVVYAMGRSRPAPGKERELVAAISSGGGSTYYADSVKGRFTISRDNAKNSVYLQMNSQKPEDTEVYYCNAVDKLYYWRYDYWRQGTQVTVSS”, the “polyreactivity (PSR sort gate)” value is on record as “low polyreactivity”.

With “QVQLVESGGGLVQAGGSLRLICDASGRIFPWYTMGWYRQAPGKERELVAAITSGGNKDYADSVKGRFTISRDYAKNTVFLQMNSLKPEDTAVYYCAAGPDPLGEDYWGQGTQVTVSS”, the “polyreactivity (PSR sort gate)” value is “low polyreactivity”.

With “QVQLVESGGGLVQAGGSLRLICDASGRTFGPYVMRLYRQAPGKERELVASISSADSRYYADSVKGRFTISRDNAKNTVYLQMNSLKPEDTAVYYCAAPSVGYYDPTDFDYWGQGTQVTVSS”, the “polyreactivity (PSR sort gate)” value is “low polyreactivity”.

Turning to “QVQLVESGGGLVQAGGSLRLICPASGRIFLTKAIGWYRPAPGIDRELVADISRGGSTYADSVKGRFTISSDNAKNTVYLQINSLKPEDTAVYYCAPDEYSPADSRTRYDYWGQGTQVSVSS”, the “polyreactivity (PSR sort gate)” value was “low polyreactivity”.

As for “QVQLVESGGGLVQAGGSLRLIFAASGSIFPDYAMGWYITAPGKERELVAAISRSGGRTSYADSVKGRFTISRDNAKNTVFLQMNSLKPEDTAVYYCNVASRQGSTYDYWGQGTQVTVSS”, the “polyreactivity (PSR sort gate)” value is listed as “high polyreactivity”.

Consider “QVQLVESGGGLVQAGGSLRLISAASGFTFAWYTMGWYRQAPGKERELVAAITDSGDSTYYADSVKGRFTISRDNAKNTVYLQMNSLKPEDTAVYYCATRSWYWDIWITEYDYWGQGTQVTVSS”, for which the “polyreactivity (PSR sort gate)” value is given as “low polyreactivity”.

For “QVQLVESGGGLVQAGGSLRLISAASGITFDPYAMGWYRQAPGKEREFVAAITRRSASTYYADSVKGRFTISRDNAKNTVYLQMNSLKPEDTALYYCAARGKVPYNYWGQGTQVTVSS”, the “polyreactivity (PSR sort gate)” value was “high polyreactivity”.

Regarding “QVQLVESGGGLVQAGGSLRLISAASVRTFAPYPRGWYREAPGKDRELVAAISSGGGNTYYADSVKGRFTISRDHPKNTVYLLMNSLKPEDTAGYYCNAAQRRGGLGYWGQGTQVTVSS”, the “polyreactivity (PSR sort gate)” value is “high polyreactivity”.
